Data from article PMC12197871.
Substitutions are numbered along the chain they refer to. In names and notes the source's numbering stands.

B1: WT GsLDH (Geobacillus stearothermophilus) (protein)
chain: MKNNGGARVVVIGAGFVGASYVFALMNQGIADEIVLIDANESKAIGDAMDFNHGKVFAPKPVDIWHGDYDDCRDADLVVICAGANQKPGETRLDLVDKNIAIFRSIVESVMASGFQGLFLVATNPVDILTYATWKFSGLPHERVIGSGTILDTARFRFLLGEYFSVAPQNVHAYIIGEHGDTELPVWSQAYIGVMPIRKLVESKGEEAQKDLERIFVNVRDAAYQIIEKKGATYYGIAMGLARVTRAILHNENAILTVSAYLDGLYGERDVYIGVPAVINRNGIREVIEIELNDDEKNRFHHSAATLKSVLARAFTR
B2: Gln189Leu (Geobacillus stearothermophilus; Q189L) (protein)
chain: B1 chain with Q189L
B3: Triple mutant (Geobacillus stearothermophilus; N293S/Q189L/R104C) (protein)
chain: B1 chain with R104C, Q189L, N293S

How the values were obtained:
[1] = substrate: CC(=O)C(=O)O; assay: purified protein, by the assay type; conditions: pH 6.5
[2] = substrate: CC(=O)C(=O)O; assay: purified protein, by the assay type; type: biochemical; conditions: pH 6.5

Protein	K0.5 [1]	K0.5 [2]	kcat [2]
B1	2.8 ± 0.4 mM		
B2		2.3 ± 0.2 mM	73 ± 12 s⁻¹
B3		0.41 ± 0.09 mM	57 ± 8 s⁻¹
